The results in this text go back to paper PMC9251316, “Engineering the Active Site Pocket to Enhance the Catalytic Efficiency of a Novel Feruloyl Esterase Derived From Human Intestinal Bacteria Dorea formicigenerans” (Frontiers in Bioengineering and Biotechnology, 2022).

Data set [1] deals with feruloyl esterase from Dorea formicigenerans (DfFAE) (Dorea formicigenerans). Description: SEC; Superdex 200 Increase 10/300 GL; elution volume 12.9 ml; mass markers conalbumin 75 kDa and aldolase 158 kDa; apparent MW about 117 kDa. (In general: In gel filtration, larger molecules generally elute earlier.)
Substrate in data set [2]: CCCC(=O)Oc1ccc([N+](=O)[O-])cc1
The experiment in a line: purified protein. It counts as biochemical, Dorea formicigenerans. To be noted: 10 mM Tris-HCl pH 8.4, 2.5% Triton X-100, 40 °C.

Substrate in data set [3]: CC(=O)Oc1ccc([N+](=O)[O-])cc1
The experiment in a line: purified protein. Type of data set: biochemical, Dorea formicigenerans. To be noted: 10 mM Tris-HCl pH 8.4, 2.5% Triton X-100, 40 °C.

Substrate in data set [4]: CCCCCCCC(=O)Oc1ccc([N+](=O)[O-])cc1
Description: purified protein. It counts as biochemical, Dorea formicigenerans. To be noted: 10 mM Tris-HCl pH 8.4, 2.5% Triton X-100, 40 °C.

As for “feruloyl esterase from Dorea formicigenerans (DfFAE) (enzyme)”, the stoichiometry N (commonly a count of units in the complex or per binding partner) in data set [1] stood at 3.

B1: DfFAE (Dorea formicigenerans; N156A) (protein)
chain: MNQKKECMDVHVNGLKFHVQTFGSGVPIIMIMGLGAPGDKWKHNYELLSKWFWCIVPDNRGAGLSDKPEAESYTTEQMADDIIGIMDALDIKKAHVMGVSMGGAIAQQVALKVPDRVLSLILTSTFASVSPAFKKALNLICELKEDTDPAVLKQLALWMTYGQYTQIHHPEKIEKSIEEDAAYPYPMPVYAYKAQCGACLSHNTAGRLHELKMPVLIAAGAKDLFMNIEKTMELVHGIPQAEFYLAPEGGHVHQWEYPEPYDSVVVGFLMKHTN
notes: E. coli T7; trimeric by SEC (117 kDa)
As for B1, in the data set “purified protein [2]”, the Km (usually the substrate concentration at which the rate is half of its maximum) was 334.3 ± 43.69 µM; the kcat (in general, the number of substrate molecules converted per active site and unit of time at saturation) came to 2.85 ± 0.0997 s⁻¹; the kcat/Km (in general, the second-order rate constant that governs catalysis at low substrate concentration) turned out to be 8520 ± 166 M⁻¹ s⁻¹. Moreover, in the data set “purified protein [3]”, the Km stood at 644.7 ± 40.59 µM, the kcat turned out to be 14.8 ± 0.333 s⁻¹ and the specificity constant (kcat/Km) worked out at 22940 ± 85.5 M⁻¹ s⁻¹.

B2: DfFAE (Dorea formicigenerans; V252A) (protein)
chain: MNQKKECMDVHVNGLKFHVQTFGSGVPIIMIMGLGAPGDKWKHNYELLSKWFWCIVPDNRGAGLSDKPEAESYTTEQMADDIIGIMDALDIKKAHVMGVSMGGAIAQQVALKVPDRVLSLILTSTFASVSPAFKKALNLICELKEDTDPAVLKQLNLWMTYGQYTQIHHPEKIEKSIEEDAAYPYPMPVYAYKAQCGACLSHNTAGRLHELKMPVLIAAGAKDLFMNIEKTMELVHGIPQAEFYLAPEGGHAHQWEYPEPYDSVVVGFLMKHTN
notes: as for B1
B2: in the data set “purified protein [4]”, the Km amounted to 99.87 ± 18.76 µM, the kcat came out at 0.52 ± 0.018 s⁻¹ and the kcat/Km was found to be 5200 ± 222 M⁻¹ s⁻¹. For the same molecule, in the data set “purified protein [2]”, the Km stood at 83.61 ± 8.65 µM, the kcat was 1.07 ± 0.0216 s⁻¹ and the kcat/Km was 12830 ± 124 M⁻¹ s⁻¹. Also, in the data set “purified protein [3]”, the Km came to 288.9 ± 53.8 µM, the kcat is 12.8 ± 0.51 s⁻¹ and the kcat/Km came to 44130 ± 226 M⁻¹ s⁻¹.

B3: DfFAE (Dorea formicigenerans; P186A) (protein)
chain: MNQKKECMDVHVNGLKFHVQTFGSGVPIIMIMGLGAPGDKWKHNYELLSKWFWCIVPDNRGAGLSDKPEAESYTTEQMADDIIGIMDALDIKKAHVMGVSMGGAIAQQVALKVPDRVLSLILTSTFASVSPAFKKALNLICELKEDTDPAVLKQLNLWMTYGQYTQIHHPEKIEKSIEEDAAYPYAMPVYAYKAQCGACLSHNTAGRLHELKMPVLIAAGAKDLFMNIEKTMELVHGIPQAEFYLAPEGGHVHQWEYPEPYDSVVVGFLMKHTN
notes: as for B1
As to B3, in “purified protein [3]”, the Michaelis-Menten constant (Km) is 824 ± 242.1 µM, the kcat worked out at 11.3 ± 1.21 s⁻¹ and the kcat/Km amounted to 13700 ± 400 M⁻¹ s⁻¹.

B4: DfFAE (Dorea formicigenerans) (protein)
chain: MNQKKECMDVHVNGLKFHVQTFGSGVPIIMIMGLGAPGDKWKHNYELLSKWFWCIVPDNRGAGLSDKPEAESYTTEQMADDIIGIMDALDIKKAHVMGVSMGGAIAQQVALKVPDRVLSLILTSTFASVSPAFKKALNLICELKEDTDPAVLKQLNLWMTYGQYTQIHHPEKIEKSIEEDAAYPYPMPVYAYKAQCGACLSHNTAGRLHELKMPVLIAAGAKDLFMNIEKTMELVHGIPQAEFYLAPEGGHVHQWEYPEPYDSVVVGFLMKHTN
notes: as for B1
On to B4, for which, in the data set “purified protein [4]”, the Km was 526.2 ± 73.57 µM, the kcat came out at 0.186 ± 0.00865 s⁻¹ and the kcat/Km was found to be 354 ± 186 M⁻¹ s⁻¹. In addition, in the data set “purified protein [2]”, the Km was determined as 357.3 ± 68.62 µM, the kcat came out at 0.798 ± 0.0436 s⁻¹ and the kcat/Km was determined as 2230 ± 247 M⁻¹ s⁻¹. For the same molecule, in “purified protein [3]”, the Km was 572 ± 56.57 µM, the kcat is 4.42 ± 0.165 s⁻¹ and the kcat/Km turned out to be 7730 ± 136 M⁻¹ s⁻¹.

B5: DfFAE (Dorea formicigenerans; W255A) (protein)
chain: MNQKKECMDVHVNGLKFHVQTFGSGVPIIMIMGLGAPGDKWKHNYELLSKWFWCIVPDNRGAGLSDKPEAESYTTEQMADDIIGIMDALDIKKAHVMGVSMGGAIAQQVALKVPDRVLSLILTSTFASVSPAFKKALNLICELKEDTDPAVLKQLNLWMTYGQYTQIHHPEKIEKSIEEDAAYPYPMPVYAYKAQCGACLSHNTAGRLHELKMPVLIAAGAKDLFMNIEKTMELVHGIPQAEFYLAPEGGHVHQAEYPEPYDSVVVGFLMKHTN
notes: as for B1
Take B5: in the data set “purified protein [4]”, the Km was 178.2 ± 13.66 µM, the kcat was determined as 2.87 ± 0.0543 s⁻¹ and the kcat/Km worked out at 16100 ± 95.6 M⁻¹ s⁻¹. Further, in the data set “purified protein [3]”, the Km worked out at 809.7 ± 182.4 µM, the kcat stood at 12.1 ± 0.891 s⁻¹ and the kcat/Km came out at 14900 ± 299 M⁻¹ s⁻¹.

B6: DfFAE (Dorea formicigenerans; P149A) (protein)
chain: MNQKKECMDVHVNGLKFHVQTFGSGVPIIMIMGLGAPGDKWKHNYELLSKWFWCIVPDNRGAGLSDKPEAESYTTEQMADDIIGIMDALDIKKAHVMGVSMGGAIAQQVALKVPDRVLSLILTSTFASVSPAFKKALNLICELKEDTDAAVLKQLNLWMTYGQYTQIHHPEKIEKSIEEDAAYPYPMPVYAYKAQCGACLSHNTAGRLHELKMPVLIAAGAKDLFMNIEKTMELVHGIPQAEFYLAPEGGHVHQWEYPEPYDSVVVGFLMKHTN
notes: as for B1
Take B6: in the data set “purified protein [4]”, the Km was determined as 428.8 ± 35.31 µM, the kcat was 1.08 ± 0.0243 s⁻¹ and the kcat/Km came out at 2510 ± 105 M⁻¹ s⁻¹. In the data set “purified protein [3]”, the Km worked out at 803.7 ± 107.8 µM, the kcat is 17.4 ± 0.809 s⁻¹ and the kcat/Km stood at 21690 ± 181 M⁻¹ s⁻¹.
